Results taken from paper PMC12884772, “Macrophagic Sclerostin Loop2‐ApoER2 Interaction Required by Sclerostin for Cardiovascular Protective Action” (Advanced Science, 2025).

Target: T1, ApoER2 (Mus musculus, UniProt Q924X6)
T1 construct: FLAG; expressed in transfected cells; host or cells: RAW264.7
T1 sequence (Q924X6 29-996): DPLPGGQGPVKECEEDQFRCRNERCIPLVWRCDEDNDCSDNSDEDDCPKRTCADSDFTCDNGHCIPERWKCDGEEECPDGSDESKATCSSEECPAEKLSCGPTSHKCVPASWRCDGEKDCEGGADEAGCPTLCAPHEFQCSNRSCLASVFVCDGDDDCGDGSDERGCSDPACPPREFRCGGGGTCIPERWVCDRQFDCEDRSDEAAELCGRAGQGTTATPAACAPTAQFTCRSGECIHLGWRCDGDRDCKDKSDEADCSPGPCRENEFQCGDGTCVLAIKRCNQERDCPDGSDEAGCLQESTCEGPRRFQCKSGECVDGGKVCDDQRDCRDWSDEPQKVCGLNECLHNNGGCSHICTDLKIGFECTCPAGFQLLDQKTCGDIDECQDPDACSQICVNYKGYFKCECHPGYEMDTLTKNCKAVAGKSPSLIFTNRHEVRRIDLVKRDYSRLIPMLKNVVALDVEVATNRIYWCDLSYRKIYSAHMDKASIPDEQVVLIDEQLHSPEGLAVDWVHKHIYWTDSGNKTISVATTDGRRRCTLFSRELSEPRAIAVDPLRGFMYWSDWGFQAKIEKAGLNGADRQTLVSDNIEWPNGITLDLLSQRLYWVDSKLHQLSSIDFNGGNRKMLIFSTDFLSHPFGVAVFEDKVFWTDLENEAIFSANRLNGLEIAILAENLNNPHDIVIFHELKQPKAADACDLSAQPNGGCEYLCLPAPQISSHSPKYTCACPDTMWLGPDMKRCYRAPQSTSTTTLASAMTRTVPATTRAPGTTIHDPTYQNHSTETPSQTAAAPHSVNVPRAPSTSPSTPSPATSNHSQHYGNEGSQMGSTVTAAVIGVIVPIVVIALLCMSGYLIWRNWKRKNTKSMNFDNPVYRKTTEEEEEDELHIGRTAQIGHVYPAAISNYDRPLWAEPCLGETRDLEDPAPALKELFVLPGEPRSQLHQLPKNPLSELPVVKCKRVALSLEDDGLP
Assay: Pull‐down assay of ApoER2 by His‐tagged full‐length/truncated/mutated sclerostin in macrophages (RAW264.7)
Type: binding
Settings: RAW264.7 lysate, Ni‐NTA beads, western blot; Figure 6A, S6A
Experimental: The interaction of full‐length (FL)/truncated ApoER2 with full‐length (FL) /truncated sclerostin in macrophages (RAW264.7) were determined by pull‐down assay and Co‐IP assay. The binding affinity of ApoER2 to FL sclerostin and sclerostin loop2 were determined by biolayer interferometry (BLI) analysis. Moreover, the binding of sclerostin to ApoER2 on macrophages (RAW264.7) was examined by confocal microscopy.
The interaction residues within ApoER2 to sclerostin loop2 were determined in combination with pull‐down assay and BLI analysis. Based on the interaction residues within ApoER2 to sclerostin loop2, a series of Lrp8 mutations were developed. Based on the interaction residues within sclerostin loop2 to ApoER2, a series of sost mutations were developed.
Cell lysates were collected using RIPA Lysis and Extraction Buffer (Thermo Scientific, 89 901) supplemented with Protease Inhibitor Cocktail (CST, 5871) and centrifuged at 4000 rpm for 30 min at 4 °C, and replaced with binding buffer (PBS buffer, 20 mM imidazole, pH 8.0). […]
The eluted liquid from pull‐down assay was then mixed with SDS‐PAGE loading buffer and boiled for 10 min at 95 °C to make samples. […] The ECL solution (BIO‐RAD, 1 705 061) was used to visualize detected proteins. […]

With “sclerostin: recombinant human/mouse full‐length sclerostin protein” the “Pull‐down of FLAG‐ApoER2 by the His‐tagged protein/peptide” value was “pulled”.
